Experimental data published in patent US20220306719A1 (JULIUS MAXIMILIANS UNIVERSIT T W RZBURG, published 2022).
“And” between values parts separate entries of the source, which are not always exact repeats. Identical values can stand only once.

Key:
Experiment in all cases: cell-based or functional assay
[1] = molecular target: CD19_IgG3_MiH3 CAR (FMC63 scFv, IgG3_MiH3 spacer, CD28tm, 4-1BB/CD3zeta) (human)
[2] = molecular target: CD19_IgG3_MiH4 CAR (FMC63 scFv, IgG3_MiH4 spacer, CD28tm, 4-1BB/CD3zeta) (human)
Chain of CD19_IgG3_MiH4 CAR (FMC63 scFv, IgG3_MiH4 spacer, CD28tm, 4-1BB/CD3zeta) (human) (chain, as listed by the source): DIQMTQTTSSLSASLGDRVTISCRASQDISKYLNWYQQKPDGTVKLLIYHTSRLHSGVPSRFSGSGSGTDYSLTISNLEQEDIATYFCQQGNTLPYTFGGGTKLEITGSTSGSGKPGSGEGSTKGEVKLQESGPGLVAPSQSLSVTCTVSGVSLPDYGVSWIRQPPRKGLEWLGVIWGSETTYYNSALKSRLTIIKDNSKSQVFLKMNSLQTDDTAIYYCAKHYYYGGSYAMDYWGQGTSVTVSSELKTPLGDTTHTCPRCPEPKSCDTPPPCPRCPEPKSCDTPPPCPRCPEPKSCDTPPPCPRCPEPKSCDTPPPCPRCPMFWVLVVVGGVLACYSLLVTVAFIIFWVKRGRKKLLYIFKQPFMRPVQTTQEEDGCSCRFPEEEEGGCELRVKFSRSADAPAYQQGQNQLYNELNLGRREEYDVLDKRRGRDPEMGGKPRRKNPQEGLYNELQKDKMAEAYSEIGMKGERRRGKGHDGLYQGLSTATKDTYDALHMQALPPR

[3] = molecular target: CD19_IgG3_MiH5 CAR (FMC63 scFv, IgG3_MiH5 spacer, CD28tm, 4-1BB/CD3zeta) (human)
Chain of CD19_IgG3_MiH5 CAR (FMC63 scFv, IgG3_MiH5 spacer, CD28tm, 4-1BB/CD3zeta) (human) (chain, as listed by the source): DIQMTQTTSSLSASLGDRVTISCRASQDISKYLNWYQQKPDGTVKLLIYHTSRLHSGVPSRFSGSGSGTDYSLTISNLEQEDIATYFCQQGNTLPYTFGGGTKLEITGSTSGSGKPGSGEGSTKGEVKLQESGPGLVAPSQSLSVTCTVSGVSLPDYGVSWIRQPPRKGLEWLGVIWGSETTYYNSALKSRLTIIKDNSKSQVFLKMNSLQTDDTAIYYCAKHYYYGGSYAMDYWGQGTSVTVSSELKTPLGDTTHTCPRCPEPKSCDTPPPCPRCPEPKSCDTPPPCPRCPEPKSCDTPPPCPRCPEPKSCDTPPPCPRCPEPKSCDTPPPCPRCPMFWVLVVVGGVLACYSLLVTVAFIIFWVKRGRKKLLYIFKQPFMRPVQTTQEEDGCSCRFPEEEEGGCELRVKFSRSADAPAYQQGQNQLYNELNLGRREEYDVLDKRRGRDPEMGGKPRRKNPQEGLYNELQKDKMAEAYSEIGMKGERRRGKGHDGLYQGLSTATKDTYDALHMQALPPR

[4] = molecular target: R11_IgG3_MiH3 CAR (ROR1-specific R11 scFv, IgG3_MiH3 spacer)
Chain of R11_IgG3_MiH3 CAR (ROR1-specific R11 scFv, IgG3_MiH3 spacer) (chain, as listed by the source): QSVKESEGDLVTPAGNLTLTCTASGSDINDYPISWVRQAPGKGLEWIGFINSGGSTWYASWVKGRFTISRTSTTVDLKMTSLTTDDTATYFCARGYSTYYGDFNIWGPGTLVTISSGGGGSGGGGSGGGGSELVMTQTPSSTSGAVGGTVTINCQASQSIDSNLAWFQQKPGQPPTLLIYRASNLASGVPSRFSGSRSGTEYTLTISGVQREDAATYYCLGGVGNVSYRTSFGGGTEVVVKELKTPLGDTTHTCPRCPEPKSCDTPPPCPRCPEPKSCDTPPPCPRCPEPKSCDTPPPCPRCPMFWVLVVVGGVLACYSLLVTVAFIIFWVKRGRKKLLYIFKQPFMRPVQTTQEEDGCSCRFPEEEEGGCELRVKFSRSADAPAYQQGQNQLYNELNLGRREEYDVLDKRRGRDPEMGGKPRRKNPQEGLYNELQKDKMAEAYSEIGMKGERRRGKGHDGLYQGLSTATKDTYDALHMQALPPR

[5] = molecular target: CD19_IgG3_MiH5/MiH1 CAR (advanced IgG3 format: FMC63 scFv with MiH5 linker between the variable domains, MiH1 …)
Chain of CD19_IgG3_MiH5/MiH1 CAR (advanced IgG3 format: FMC63 scFv with MiH5 linker between the variable domains, MiH1 …) (chain, as listed by the source): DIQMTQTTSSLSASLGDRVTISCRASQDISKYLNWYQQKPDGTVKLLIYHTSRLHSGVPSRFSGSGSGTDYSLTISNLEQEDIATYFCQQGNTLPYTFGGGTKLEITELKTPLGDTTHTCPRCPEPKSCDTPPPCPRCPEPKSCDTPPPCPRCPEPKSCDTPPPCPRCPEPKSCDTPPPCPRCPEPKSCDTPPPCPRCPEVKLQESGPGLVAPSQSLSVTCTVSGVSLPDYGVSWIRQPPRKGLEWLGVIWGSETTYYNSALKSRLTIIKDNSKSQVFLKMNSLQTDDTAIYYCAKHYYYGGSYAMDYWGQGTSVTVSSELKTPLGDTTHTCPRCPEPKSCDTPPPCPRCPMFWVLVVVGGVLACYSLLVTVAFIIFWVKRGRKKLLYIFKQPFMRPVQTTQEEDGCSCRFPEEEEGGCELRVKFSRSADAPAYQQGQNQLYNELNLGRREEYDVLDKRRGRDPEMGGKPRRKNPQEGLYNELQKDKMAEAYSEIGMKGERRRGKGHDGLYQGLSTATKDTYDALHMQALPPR

[6] = molecular target: CD20_IgG3_MiH5/MiH3 CAR (advanced IgG3 format, Leu16 scFv)
Chain of CD20_IgG3_MiH5/MiH3 CAR (advanced IgG3 format, Leu16 scFv) (chain, as listed by the source): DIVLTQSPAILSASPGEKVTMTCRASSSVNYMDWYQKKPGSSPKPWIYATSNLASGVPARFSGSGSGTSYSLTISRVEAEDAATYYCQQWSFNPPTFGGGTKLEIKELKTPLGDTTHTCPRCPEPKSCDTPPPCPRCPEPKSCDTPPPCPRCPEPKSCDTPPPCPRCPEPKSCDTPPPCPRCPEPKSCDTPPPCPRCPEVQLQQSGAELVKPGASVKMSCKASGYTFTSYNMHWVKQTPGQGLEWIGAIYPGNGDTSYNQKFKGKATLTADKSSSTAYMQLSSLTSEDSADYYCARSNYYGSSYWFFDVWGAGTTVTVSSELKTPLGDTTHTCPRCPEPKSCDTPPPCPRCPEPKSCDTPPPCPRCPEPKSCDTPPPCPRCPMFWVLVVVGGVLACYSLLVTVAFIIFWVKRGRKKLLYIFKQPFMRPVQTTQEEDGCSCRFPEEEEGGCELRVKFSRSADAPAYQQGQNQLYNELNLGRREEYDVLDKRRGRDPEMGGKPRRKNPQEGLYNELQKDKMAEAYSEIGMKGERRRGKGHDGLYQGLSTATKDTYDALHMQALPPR

[7] = molecular target: R11_IgG3_MiH5/MiH3 CAR (advanced IgG3 format, ROR1-specific R11 scFv)
Chain of R11_IgG3_MiH5/MiH3 CAR (advanced IgG3 format, ROR1-specific R11 scFv) (chain, as listed by the source): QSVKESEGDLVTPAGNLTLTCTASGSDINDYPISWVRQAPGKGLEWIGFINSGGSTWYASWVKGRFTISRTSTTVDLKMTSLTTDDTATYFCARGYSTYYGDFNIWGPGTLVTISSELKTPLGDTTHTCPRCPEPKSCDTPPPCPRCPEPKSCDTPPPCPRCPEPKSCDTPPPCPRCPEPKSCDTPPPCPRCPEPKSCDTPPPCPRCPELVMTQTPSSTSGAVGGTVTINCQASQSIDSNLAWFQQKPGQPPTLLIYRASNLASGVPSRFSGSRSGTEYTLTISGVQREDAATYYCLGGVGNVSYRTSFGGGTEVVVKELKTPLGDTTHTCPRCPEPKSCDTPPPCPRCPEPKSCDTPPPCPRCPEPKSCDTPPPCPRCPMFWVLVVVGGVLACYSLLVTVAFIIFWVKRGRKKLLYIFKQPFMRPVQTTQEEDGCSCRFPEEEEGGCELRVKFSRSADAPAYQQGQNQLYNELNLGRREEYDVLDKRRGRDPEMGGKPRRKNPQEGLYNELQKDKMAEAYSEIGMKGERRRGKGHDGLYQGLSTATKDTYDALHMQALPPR

[8] = molecular target: CD19_IgG3_MiH1 CAR (FMC63 scFv, IgG3_MiH1 spacer, CD28tm, 4-1BB/CD3zeta)
Chain of CD19_IgG3_MiH1 CAR (FMC63 scFv, IgG3_MiH1 spacer, CD28tm, 4-1BB/CD3zeta) (chain, as listed by the source): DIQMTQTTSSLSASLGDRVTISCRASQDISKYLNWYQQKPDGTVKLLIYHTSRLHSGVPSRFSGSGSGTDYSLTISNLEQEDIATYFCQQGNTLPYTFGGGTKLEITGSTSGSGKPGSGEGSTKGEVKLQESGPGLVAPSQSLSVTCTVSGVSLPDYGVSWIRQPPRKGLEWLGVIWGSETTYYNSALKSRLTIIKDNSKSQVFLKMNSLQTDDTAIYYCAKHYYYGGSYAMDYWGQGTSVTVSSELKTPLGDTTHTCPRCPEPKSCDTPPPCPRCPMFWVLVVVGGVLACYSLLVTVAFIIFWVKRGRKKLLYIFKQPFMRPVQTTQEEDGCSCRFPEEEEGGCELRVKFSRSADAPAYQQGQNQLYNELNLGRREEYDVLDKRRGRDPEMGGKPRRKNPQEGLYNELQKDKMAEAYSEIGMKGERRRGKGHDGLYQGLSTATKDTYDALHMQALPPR

Chain of CD19_IgG3_MiH3 CAR (FMC63 scFv, IgG3_MiH3 spacer, CD28tm, 4-1BB/CD3zeta) (human) (chain, as listed by the source): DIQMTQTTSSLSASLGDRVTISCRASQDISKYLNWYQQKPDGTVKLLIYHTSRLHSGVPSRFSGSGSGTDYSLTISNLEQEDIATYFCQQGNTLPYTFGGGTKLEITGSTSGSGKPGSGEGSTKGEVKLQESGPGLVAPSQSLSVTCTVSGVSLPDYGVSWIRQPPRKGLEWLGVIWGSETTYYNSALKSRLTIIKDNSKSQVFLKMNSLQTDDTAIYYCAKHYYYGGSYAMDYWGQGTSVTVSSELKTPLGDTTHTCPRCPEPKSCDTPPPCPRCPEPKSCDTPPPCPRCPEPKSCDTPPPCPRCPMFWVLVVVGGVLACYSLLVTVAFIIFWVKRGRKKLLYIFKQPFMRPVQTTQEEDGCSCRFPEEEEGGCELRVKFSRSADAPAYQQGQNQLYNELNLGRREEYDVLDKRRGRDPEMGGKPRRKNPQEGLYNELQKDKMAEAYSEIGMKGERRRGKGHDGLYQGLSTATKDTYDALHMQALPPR

Binder | increase in CAR T cell numbers after 7 days of stimulation on plate-bound antibody [1] | expansion of CAR T cells after one week on plate-bound antibody [2] | expansion of CAR T cells after one week on plate-bound antibody [3] | ADC concentration with the told effect on viable CAR T cells (72 h) [4] | ADC concentration with the told effect on viable CAR T cells (72 h) [5] | ADC concentration with the told effect on viable CAR T cells (72 h) [6] | ADC concentration with the told effect on viable CAR T cells (72 h) [7] | ADC concentration with the told effect on viable CAR T cells (72 h) [1] | ADC concentration with the told effect on viable CAR T cells (72 h) [2] | ADC concentration with the told effect on viable CAR T cells (72 h) [8] | ADC concentration with the told effect on viable CAR T cells (72 h) [3]
anti-MiH antibody #1 (antibody, V domains shown) VH: QVQLLESGPGLVAPSQTLSITCTVSGFSFTNYDLHWVRQPPGKGLEWLGVIWAVGSTNYNSALMSRLSISKDNSKSQVFLKMNSLQTDDTAIYYCAREEDYRYGMDYWGQGTSVTVSS VL: ELVMTQSPLSLPVSLGDQASISCRSSQSLVHSNGNTYLHWYLQKPGQSPKLLIYKVSNRFSGVPDRFSGSGSGTDFTLKISRVEAEDLGVYFCSQSTHVPYTFGGGTKLEIK | > 2 fold | 4 fold | 4 fold |  |  |  |  |  |  |  | 
anti-MiH antibody #1-ADC (anti-MiH antibody #1 conjugated to an anthracycline-based cytotoxic payload) (antibody, V domains shown, conjugated to an anthracycline-based cytotoxic payload (chain and site not stated)) VH: QVQLLESGPGLVAPSQTLSITCTVSGFSFTNYDLHWVRQPPGKGLEWLGVIWAVGSTNYNSALMSRLSISKDNSKSQVFLKMNSLQTDDTAIYYCAREEDYRYGMDYWGQGTSVTVSS VL: ELVMTQSPLSLPVSLGDQASISCRSSQSLVHSNGNTYLHWYLQKPGQSPKLLIYKVSNRFSGVPDRFSGSGSGTDFTLKISRVEAEDLGVYFCSQSTHVPYTFGGGTKLEIK |  |  |  | 500 ng/mL and 5000 ng/mL | 5 µg/mL | 500 ng/mL and 5000 ng/mL | 500 ng/mL and 5000 ng/mL | 5 µg/mL | 5 µg/mL | 10 µg/mL | 50 ng/mL and 5000 ng/mL
